# Experimental data published in patent US20260049126A1 (UCB, published 2026).
# Like-named read-outs stand apart in the source and are kept apart here.
# T1: Activin B (UniProt P09529 293-407)
# T1 sequence (looked up): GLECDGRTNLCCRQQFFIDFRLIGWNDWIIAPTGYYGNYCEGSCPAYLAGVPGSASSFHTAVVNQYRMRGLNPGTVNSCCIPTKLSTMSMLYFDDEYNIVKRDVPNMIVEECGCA
# T2: Activin A (UniProt P08476 311-426)
# T2 sequence (looked up): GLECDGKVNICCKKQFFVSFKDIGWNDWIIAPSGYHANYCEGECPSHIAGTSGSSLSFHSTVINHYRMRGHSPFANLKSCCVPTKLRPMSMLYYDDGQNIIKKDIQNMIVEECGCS
# How the values were obtained:
# Activin B [1] = molecular target: T1, Activin B; assay: SPR (Biacore T200), FST-Fab captured on anti-F(ab')2, Activin B as analyte, 1:1 model
# Description: (§1) The binding kinetics of the fusion proteins to various targets (see below) were determined by surface plasmon resonance using a Biacore T200 (Cytiva). For each type of assay, kinetic parameters were determined using a 1:1 binding model using Biacore T200 Evaluation software (version 3.0).
# (§2) For the assessment of binding to Activin A and Activin B (R&D Systems), a goat anti-human F(ab′)₂ fragment specific antibody (Jackson ImmunoResearch) was first immobilised on a CM5 Sensor Chip via amine coupling chemistry to a level of approximately 5000RU. Using a standard multi-cycle kinetic approach, each analysis cycle consisted of capture of FST-Fab to the anti-F(ab′)₂ surface followed by injection of analyte and finally surface regeneration using 60s injections of 50 mM HCl, and 5 mM NaOH. […] The binding response of a parallel blank surface was subtracted, and buffer blank injections were included to subtract instrument noise and drift.
# GDF8 (myostatin) [2] = molecular target: GDF8 (myostatin) (UniProt O14793); assay: SPR (Biacore T200), GDF8 amine-coupled, FST-Fab as analyte, single-cycle kinetics
# Activin A [3] = molecular target: T2, Activin A; assay: SPR (Biacore T200), FST-Fab captured on anti-F(ab')2, Activin A as analyte, 1:1 model
# Description: as §1, §2
# Activin A [4] = molecular target: T2, Activin A; assay: cell-based or functional assay
# GDF8 (myostatin) [5] = molecular target: T3, GDF8 (myostatin) (UniProt O14793 267-375); assay: cell-based or functional assay
# GDF11 [6] = molecular target: T4, GDF11 (UniProt O95390 299-407); assay: cell-based or functional assay
# Activin B [7] = molecular target: T1, Activin B; assay: cell-based or functional assay
# Activin A [8] = molecular target: T2, Activin A; assay: cell-based or functional assay; remark: listed apart in the source
# GDF8 (myostatin) [9] = molecular target: T3, GDF8 (myostatin); assay: cell-based or functional assay; remark: listed apart in the source
# GDF11 [10] = molecular target: T4, GDF11; assay: cell-based or functional assay; remark: listed apart in the source
# Activin B [11] = molecular target: T1, Activin B; assay: cell-based or functional assay; remark: listed apart in the source
# Activin A [12] = molecular target: T2, Activin A; assay: cell-based or functional assay; remark: listed apart in the source
# GDF8 (myostatin) [13] = molecular target: T3, GDF8 (myostatin); assay: cell-based or functional assay; remark: listed apart in the source
# GDF11 [14] = molecular target: T4, GDF11; assay: cell-based or functional assay; remark: listed apart in the source
# Activin B [15] = molecular target: T1, Activin B; assay: cell-based or functional assay; remark: listed apart in the source
# GDF11 [16] = molecular target: T4, GDF11; assay: SPR (Biacore T200), GDF11 amine-coupled, FST-Fab as analyte, single-cycle kinetics
# Description: as §1
# (§3) For the assessment of binding to GDF8 and GDF11 (R&D Systems), each one of GDF8 and GDF11 was immobilised by amine coupling chemistry to the surface of a CM5 sensorchip to achieve an immobilisation level of approximately 250RU. For both GDF8 and GDF11, analysis was conducted using a single-cycle kinetics approach with sequential 180s injections of FST-Fab at increasing concentrations (0.8, 4, 20, 100 and 500 nM) in HBS-EP+ running buffer (Cytiva) at 25° C. at a flow rate of 30 μl/min, followed by monitoring the dissociation for 1800s. The binding response of a parallel blank surface was subtracted, and a series of buffer blank injections were conducted to subtract instrument noise and drift.
# GDF8 (myostatin) [17] = molecular target: T3, GDF8 (myostatin); assay: SPR (Biacore T200), GDF8 amine-coupled, FST-Fab as analyte, single-cycle kinetics
# Description: as §1, §3
# Human Albumin = molecular target: T5, Human Albumin (human, UniProt P02768 25-609); assay: SPR (Biacore T200), fusion protein captured on anti-F(ab')2, albumin as analyte, 1:1 model
# T5 construct: Analyte in the Biacore albumin assay; also called human serum albumin; HSA
# Description: as §1
# For the assessment of binding to albumin: A goat anti-human F(ab′)2 fragment specific antibody (Jackson ImmunoResearch) was first immobilised on a CM5 Sensor Chip via amine coupling chemistry to a level of approximately 5000RU. Using a standard multi-cycle kinetic approach, each analysis cycle consisted of capture of the fusion protein to be tested to the anti-F(ab′)2 surface followed by injection of albumin and finally surface regeneration using 60s injections of 50 mM HCl, and 5 mM NaOH. […] The binding response of a parallel blank surface was subtracted and buffer blank injections were included to subtract instrument noise and drift.
# Activin A [18] = molecular target: T2, Activin A; assay: cell-based or functional assay; remark: listed apart in the source
# GDF8 (myostatin) [19] = molecular target: T3, GDF8 (myostatin); assay: cell-based or functional assay; remark: listed apart in the source
# GDF11 [20] = molecular target: T4, GDF11; assay: cell-based or functional assay; remark: listed apart in the source
# Activin B [21] = molecular target: T1, Activin B; assay: cell-based or functional assay; remark: listed apart in the source
Molecule,Kd (Activin B [1]) [nM],Kd (GDF8 (myostatin) [2]) [nM],Kd (Activin A [3]) [nM],IC50 (read off the curve) (GDF8 (myostatin) [5]) [nM],IC50 (read off the curve) (GDF11 [6]) [nM],IC50 (read off the curve) (Activin B [7]) [nM],"IC50 (geomean), Smad2/3 reporter gene assay, HEK-Blue TGFb cells (Activin A [8]) [nM]","IC50 (geomean), Smad2/3 reporter gene assay, HEK-Blue TGFb cells (GDF8 (myostatin) [9]) [nM]","IC50 (geomean), Smad2/3 reporter gene assay, HEK-Blue TGFb cells (GDF11 [10]) [nM]","IC50 (geomean), Smad2/3 reporter gene assay, HEK-Blue TGFb cells (Activin B [11]) [nM]",further results
FST288-Fab,0.071,0.24,0.032,–,–,–,–,–,–,–,–
FST315-Fab,0.069,0.15,0.2,–,–,–,–,–,–,–,–
FST315WT (other) GNCWLRQAKNGRCQVLYKTELSKEECCSTGRLSTSWTEEDVNDNTLFKWMIFNGGAPNCIPCKETCENVDCGPGKKCRMNKKNKPRCVCAPDCSNITWKGPVCGLDGKTYRNECALLKARCKEQPELEVQYQGRCKKTCRDVFCPGSSTCVVDQTNNAYCVTCNRICPEPASSEQYLCGNDGVTYSSACHLRKATCLLGRSIGLAYEGKCIKAKSCEDIQCTGGKKCLWDFKVGRGRCSLCDELCPDSKSDEPVCASDNATYASECAMKEAACSSGVLLEVKHSGSCNSISEDTEEEEEDEDQDYSFPISSILEW,–,–,–,~3,~6,~2,0.31,3.08,8.37,1.57,IC50 (read off the curve) (Activin A [4]): ~0.4 nM
FST288WT (other) GNCWLRQAKNGRCQVLYKTELSKEECCSTGRLSTSWTEEDVNDNTLFKWMIFNGGAPNCIPCKETCENVDCGPGKKCRMNKKNKPRCVCAPDCSNITWKGPVCGLDGKTYRNECALLKARCKEQPELEVQYQGRCKKTCRDVFCPGSSTCVVDQTNNAYCVTCNRICPEPASSEQYLCGNDGVTYSSACHLRKATCLLGRSIGLAYEGKCIKAKSCEDIQCTGGKKCLWDFKVGRGRCSLCDELCPDSKSDEPVCASDNATYASECAMKEAACSSGVLLEVKHSGSCN,–,–,–,–,–,–,0.14,0.73,0.77,0.45,IC50 (read off the curve) (Activin A [12]): ~0.4 nM; IC50 (read off the curve) (GDF8 (myostatin) [13]): ~2 nM; IC50 (read off the curve) (GDF11 [14]): ~2 nM; IC50 (read off the curve) (Activin B [15]): ~0.5 nM
"FST315HBM-Fab (other, paired with the Fab light chain; also called FST-Fab1; FST-Fab 1) heavy: GNCWLRQAKNGRCQVLYKTELSKEECCSTGRLSTSWTEEDVNDNTLFKWMIFNGGAPNCIPCKETCENVDCGPGKACRMNAANKPRCVCAPDCSNITWKGPVCGLDGKTYRNECALLKARCKEQPELEVQYQGRCKKTCRDVFCPGSSTCVVDQTNNAYCVTCNRICPEPASSEQYLCGNDGVTYSSACHLRKATCLLGRSIGLAYEGKCIKAKSCEDIQCTGGKKCLWDFKVGRGRCSLCDELCPDSKSDEPVCASDNATYASECAMKEAACSSGVLLEVKHSGSCNSISEDTEEEEEDEDQDYSFPISSILEWSGGGGSEVQLLESGGGLVQPGGSLRLSCAVSGIDLSNYAINWVRQAPGKGLEWIGIIWASGTTFYATWAKGRFTISRDNSKNTVYLQMNSLRAEDTAVYYCARTVPGYSTAPYFDLWGQGTLVTVSSASTKGPSVFPLAPSSKSTSGGTAALGCLVKDYFPEPVTVSWNSGALTSGVHTFPAVLQSSGLYSLSSVVTVPSSSLGTQTYICNVNHKPSNTKVDKKVEPKSC light: DIQMTQSPSSVSASVGDRVTITCQSSPSVWSNFLSWYQQKPGKAPKLLIYEASKLTSGVPSRFSGSGSGTDFTLTISSLQPEDFATYYCGGGYSSISDTTFGGGTKVEIKRTVAAPSVFIFPPSDEQLKSGTASVVCLLNNFYPREAKVQWKVDNALQSGNSQESVTEQDSKDSTYSLSSTLTLSKADYEKHKVYACEVTHQGLSSPVTKSFNRGEC",0.011,–,0.011,~1,~2,~0.6,0.1,1.4,4.24,0.46,"Kd (GDF11 [16]): 1.25 nM; Kd (GDF8 (myostatin) [17]): 2.3 nM; Kd (Human Albumin): 2.6 nM; fold potency against the parent FST315WT, Smad2/3 reporter gene assay (Activin A [18]): 3 fold; fold potency against the parent FST315WT, Smad2/3 reporter gene assay (GDF8 (myostatin) [19]): 2 fold; fold potency against the parent FST315WT, Smad2/3 reporter gene assay (GDF11 [20]): 2 fold; fold potency against the parent FST315WT, Smad2/3 reporter gene assay (Activin B [21]): 3 fold"
